B1: HSP90AB1 (parent)
chain: QVANSAFVERVRKRGFEVVYMTEP
B2: FAM46D (parent)
chain: LELKFVSSLRRQFEFSVDSFQIVL

Variants of: B1
Experiment: protein stability index of a GFP-peptide fusion (GPS, HEK-293T) (PSI 1-6); higher = more stable
Settings: c terminus: a fixed tail appended
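Note: lentivirally expressed fusions sorted by FACS into six bins by GFP to DsRed ratio, PSI derived from sequencing read proportions per bin multiplied by bin number.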

Protein stability index of substitutions, site by site:
E17: M 2.15; N 2.32; D 2; I 2.75; G 2.88; A 1.26; H 1.76; K 2.02; F 4.31
N4: F 2.16; K 1.96; Q 2.72; A 2.02; T 1.78; E 2.81; D 3.01; I 2.64; S 2.21; R 2.18; H 2.6; W 1.94; L 1.69; P 2.03; Y 1.72
E9: K 2.26; T 1.76; C 2.07; F 2.16; V 1.97; Y 2.32; H 2.27; D 2.56; A 1.36; G 2.74; S 1.63; Q 1.72; P 2.56; L 3.24; W 3.56; R 1.93; M 2.69; N 1.9
R14: V 1.65; Y 2.21; K 2.54; H 1.98; C 1.36; D 3.23; W 2.16; N 2.69; M 1.6; Q 2.1; L 2.03; S 2.26; G 2.09; P 2.51; F 1.92; I 2.56; E 2.75
F16: W 2.04; M 2.73; A 3.87; H 3.05; I 2.61; V 2.64; R 2.98; D 4.16; L 2.52; N 3.3; K 3.2; Q 4.2; S 3.64; Y 2.11; T 3.1; C 2.71; E 4.47; P 3.05; G 3.28
R12: C 1.98; W 1.6; Q 2.35; N 2.63; F 2.13; T 2.09; P 2.74; M 2.01; V 2.16; E 3.16; D 3.5; G 2.59; H 2.53; A 2.18; S 2.87; L 2.1; K 3.12
Q1: D 2.21; H 1.85; R 1.71; Y 3.79; E 1.91; S 2.12; T 1.95; K 2.17; A 2.29; L 2.27; G 2.33; W 1.46; I 1.7; N 2.11; C 1.57; V 2.73; M 1.81

Variants of: B2
Experiment: as above
Settings: c terminus: a fixed tail appended

Protein stability index: each site, then its substitutions
V23: E 4.1; P 2.14; W 3.15; G 1.94; T 2.62; R 2.76; N 3.11; H 2.67; Q 2.29; F 1.98; Y 3.37; L 2.9; S 2.88; A 3.08; I 2.6
I22: E 2.65; N 3.28; Y 3.01; V 3.07; S 2.36; C 2.93; L 2.7; K 1.71; G 3.17; R 2.04; H 1.5; D 2.6; P 4.29; M 3.31; F 3.23; T 2.21; W 2.8; A 2.26
L24: D 1.78; Q 2.27; M 2.73; C 3.35; W 5.02; P 2.58; S 3.63; R 2.73; V 1.77; I 3.26; G 2.6; E 3.4; H 4.63; N 2.39; F 3.74; Y 2.7; K 2.35; A 2.78
Q21: W 2.89; Y 2.8; T 2.68; V 2.67

Reference: the supplement of paper PMC10567573
